Experimental data published in article PMC12230644, “A Bacteriophage‐Derived Primase‐Helicase Orchestrates Plant Organellar DNA Replication” (Physiologia Plantarum, 2025).
Several values for one entry are separate records, joined by “and”; a condition that tells them apart may be missing. Identical values can stand only once.

T1: AtTwinkle (Arabidopsis thaliana, UniProt B5X582 92-709)
T1 sequence: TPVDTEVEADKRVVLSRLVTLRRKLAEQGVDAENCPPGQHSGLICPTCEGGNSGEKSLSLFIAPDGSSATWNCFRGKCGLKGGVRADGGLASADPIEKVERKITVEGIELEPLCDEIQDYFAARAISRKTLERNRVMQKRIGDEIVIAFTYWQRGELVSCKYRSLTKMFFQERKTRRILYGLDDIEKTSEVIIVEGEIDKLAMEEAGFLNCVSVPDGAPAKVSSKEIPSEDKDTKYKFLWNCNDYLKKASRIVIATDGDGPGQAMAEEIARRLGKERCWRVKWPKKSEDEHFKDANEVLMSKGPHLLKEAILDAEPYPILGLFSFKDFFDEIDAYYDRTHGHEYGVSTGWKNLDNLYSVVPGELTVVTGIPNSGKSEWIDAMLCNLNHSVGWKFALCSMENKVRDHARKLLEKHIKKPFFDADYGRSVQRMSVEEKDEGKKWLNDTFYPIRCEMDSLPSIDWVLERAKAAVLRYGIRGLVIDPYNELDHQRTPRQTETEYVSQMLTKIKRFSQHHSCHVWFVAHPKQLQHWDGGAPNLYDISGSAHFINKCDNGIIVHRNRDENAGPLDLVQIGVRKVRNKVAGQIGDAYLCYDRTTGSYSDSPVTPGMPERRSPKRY

T2: AtPolIA (Arabidopsis thaliana, UniProt F4I6M1 92-1050)
T2 sequence: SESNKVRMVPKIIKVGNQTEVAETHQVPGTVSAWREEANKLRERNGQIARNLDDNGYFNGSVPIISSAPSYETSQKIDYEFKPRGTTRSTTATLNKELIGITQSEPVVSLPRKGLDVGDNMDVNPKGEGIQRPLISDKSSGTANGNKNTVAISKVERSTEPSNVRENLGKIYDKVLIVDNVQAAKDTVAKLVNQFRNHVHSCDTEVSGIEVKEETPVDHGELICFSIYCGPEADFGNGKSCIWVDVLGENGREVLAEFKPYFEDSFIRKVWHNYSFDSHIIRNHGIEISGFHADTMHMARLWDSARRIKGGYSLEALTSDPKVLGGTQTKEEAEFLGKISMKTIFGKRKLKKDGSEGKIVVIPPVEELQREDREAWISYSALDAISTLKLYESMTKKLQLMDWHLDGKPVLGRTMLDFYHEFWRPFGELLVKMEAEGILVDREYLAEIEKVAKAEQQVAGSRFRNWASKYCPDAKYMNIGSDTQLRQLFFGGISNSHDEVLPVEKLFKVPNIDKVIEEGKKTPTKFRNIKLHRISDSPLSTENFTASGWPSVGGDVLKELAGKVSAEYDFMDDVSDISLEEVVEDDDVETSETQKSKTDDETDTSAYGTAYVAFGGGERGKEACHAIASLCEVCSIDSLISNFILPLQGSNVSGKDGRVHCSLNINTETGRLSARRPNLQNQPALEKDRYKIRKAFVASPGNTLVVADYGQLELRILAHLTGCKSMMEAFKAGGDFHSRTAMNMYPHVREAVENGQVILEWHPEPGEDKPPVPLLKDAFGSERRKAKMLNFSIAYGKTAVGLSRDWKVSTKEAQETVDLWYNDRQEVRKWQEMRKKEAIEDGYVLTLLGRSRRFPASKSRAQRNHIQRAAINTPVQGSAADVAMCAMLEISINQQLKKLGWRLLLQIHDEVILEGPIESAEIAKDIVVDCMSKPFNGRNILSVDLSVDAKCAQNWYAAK

B1: replication fork OligoJ+OligoK+OligoL (mixed)
DNA 1: AGCTATGACCATGATTAC
DNA 2: AGCTACCATGCCTGCACGAATTAAGCAATTCGTAATCATGGTCATAGCT
DNA 3: CAACTGCTCCGATGCCTTACCGTGCTTAATTCGTGCAGGCATGGTAGCT
B2: AtHelicaseΔ10 (AtHelicase lacking the last 10 amino acids) (domain or fragment)
chain: ILDAEPYPILGLFSFKDFFDEIDAYYDRTHGHEYGVSTGWKNLDNLYSVVPGELTVVTGIPNSGKSEWIDAMLCNLNHSVGWKFALCSMENKVRDHARKLLEKHIKKPFFDADYGRSVQRMSVEEKDEGKKWLNDTFYPIRCEMDSLPSIDWVLERAKAAVLRYGIRGLVIDPYNELDHQRTPRQTETEYVSQMLTKIKRFSQHHSCHVWFVAHPKQLQHWDGGAPNLYDISGSAHFINKCDNGIIVHRNRDENAGPLDLVQIGVRKVRNKVAGQIGDAYLCYDRTTGSYSDSPVTPG
B3: AtHelicase (helicase domain of AtTwinkle) (domain or fragment, Arabidopsis thaliana, UniProt B5X582 402-709, looked up)
chain: ILDAEPYPILGLFSFKDFFDEIDAYYDRTHGHEYGVSTGWKNLDNLYSVVPGELTVVTGIPNSGKSEWIDAMLCNLNHSVGWKFALCSMENKVRDHARKLLEKHIKKPFFDADYGRSVQRMSVEEKDEGKKWLNDTFYPIRCEMDSLPSIDWVLERAKAAVLRYGIRGLVIDPYNELDHQRTPRQTETEYVSQMLTKIKRFSQHHSCHVWFVAHPKQLQHWDGGAPNLYDISGSAHFINKCDNGIIVHRNRDENAGPLDLVQIGVRKVRNKVAGQIGDAYLCYDRTTGSYSDSPVTPGMPERRSPKRY
notes: AtTwinkle, Arabidopsis thaliana, AT1G30680, helicase domain, residues 402-709; Modified pET28-SUMO vector; also called helicase module of AtTwinkle; wild‐type AtHelicase; source: E. coli BL21(DE3) with pKJ7 chaperones, purified (Ni‐NTA, heparin, Superdex 200)
B4: AtTwinkle (bacteriophage‐related primase‐helicase from Arabidopsis thaliana), processed form (enzyme, UniProt B5X582 92-709, looked up)
chain: T1 sequence
notes: codon-optimised gene; The results call this construct 'full-length'; the methods give residues 92-709; The oligomer size is told differently in text (nonamer and a larger complex) and legend (hexamer), so copies is left empty; The methods name pET19b for cloning and pCRI1b-AtTwinkle for mutagenesis; also called plant Twinkle; full‐length AtTwinkle; source: E. coli BL21(DE3) with pKJ7 chaperones, …

Experiments:
AtTwinkle = molecular target: T1, AtTwinkle; assay: EMSA; no polymerase; EMSA on 8% polyacrylamide gel; binding buffer, pH and temperature not given in the material (helicase assays: 20 mM Bis-Tris-Propane pH 7.5, 10 mM MgCl2, 10 mM); details: protein: recombinant; tags: His tag (pET19b; mutagenesis section names pCRI1b-AtTwinkle); chain copies: 6; label: OligoJ 5'-Cy2; fork, strands 1:2 (18 bp) and 2:3 (27 bp); 4 nt gap on template; 22 nt 5' ssDNA tail on strand 3
AtTwinkle;AtPolIA = AtTwinkle;AtPolIA (Arabidopsis thaliana;Arabidopsis …, UniProt B5X582;F4I6M1 92-709;92-1050, |); assay: EMSA; constant AtPolIA, high AtTwinkle; Cy2/Cy5 (orange) band at gel top, AtPolIA-DNA band disappears; EMSA on 8% polyacrylamide gel; binding buffer, pH and temperature not given in the material (helicase assays: 20 mM Bis-Tris-Propane pH 7.5, 10 mM MgCl2, 10 mM); details: protein: recombinant;recombinant; tags: His tag (pET19b; mutagenesis section names pCRI1b-AtTwinkle);Cy5-labeled; label: OligoJ 5'-Cy2; fork, strands 1:2 (18 bp) and 2:3 (27 bp); 4 nt gap on template; 22 nt 5' ssDNA tail on strand 3
AtPolIA = molecular target: T2, AtPolIA; assay: EMSA; no AtTwinkle; EMSA on 8% polyacrylamide gel; binding buffer, pH and temperature not given in the material (helicase assays: 20 mM Bis-Tris-Propane pH 7.5, 10 mM MgCl2, 10 mM); details: protein: recombinant; tags: Cy5-labeled; label: OligoJ 5'-Cy2; fork, strands 1:2 (18 bp) and 2:3 (27 bp); 4 nt gap on template; 22 nt 5' ssDNA tail on strand 3
[1] = molecular target: AtPolIB (Arabidopsis thaliana organellar DNA polymerase IB) (Arabidopsis thaliana); assay: MST; fluorescently labelled AtPolIB (His‐tag labelling kit) at constant concentration, AtHelicase or AtHelicase‐Δ10 titrated; PBS with 0.05% Tween‐20; NanoTemper Monolith NT.115p; no DNA
[2] = molecular target: the molecule itself; assay: SEC; Superdex 200 gel filtration column calibrated with thyroglobulin, γ‐globulin, ovalbumin and myoglobin; in the absence of metal ions and nucleotides; size of the oligomer from the apparent mass

| Binder | binding result (AtTwinkle) | binding result (AtTwinkle;AtPolIA) | binding result (AtPolIA) | Kd [1] [µM] | stoichiometry N [2] |
| --- | --- | --- | --- | --- | --- |
| B1 | binds | binds | binds |  |  |
| B2 |  |  |  | 3.64 |  |
| B3 |  |  |  | 0.21 | 6 |
| B4 |  |  |  |  | 9 and 6 |
